Data: a protein production outcome set (Wang et al. 2014)

Test: label from the status in PepcDB records

Sequence: MRWITRPGWPGNLLALAAGGLTTLALAPFDFWPLVLVSVAMFYLGLRELSPRQALARGWCYGFGLYGAGTSWIYVSIHTYGGASALLAGLLMLLFIAAIALFFALPAWVWARWLRRNEAPLADSLAFAALWLWQEAFRGWFLTGFPWLYSGYSQLDAPLAGLAPVGGVWLISFALGLTAALLCNLHRLRARKSFLAMGVLLLLAPWVAGLALKDHAWTSPSGPPLKVAAMQGNIEQSMKWDPQKLNDQLALYRDMTFRSQQADLIVWPETAVPVLKESAEGYLSMMGKFAADRGAALITGVPVREPTGRGEYSYYNGITVTGQGDGTYFKQKLVPFGEYVPLQDLLRGLISFFDLPMSDFARGPNDQALLQAKGYHIAPFICYEVVYPEFAAGLSAQSDLLLTVSNDTWFGTSIGPLQHLQMAQMRALEAGRWMIRATNNGVTALIDPFGRITVQIPQFERGVLYGEVVPMHELTPYLHWRSWPLAIVCLLLFGWALLAARISKTV
- protein production: failed

Sequence: MRWKLRTAGGLTALALLGGALAGPAARAAEQGSDRLGDLVNPFIGTQNEGNTYPGAAVPFGMVQLSPDTGHNTGYDYTQNHIRGFSLVHLSGVGCRIGGDLPVLPTTGDVTETDYAKYAAGFSHDSERASPGYYRVGLDSGIVAELTATGRTGVQRYTFPATDKANVLLNAGQALHKTVSTDVEVLDDRTVRTRISGSGFCRDTGPYTVYTITRFDRPFTAYGTWHGGTVTEGSAESAAGTGRNGAYARFDATEDRTVEATTALSYVDARGAEVNLRSAEGRSFADVREAARRSWEDRLDDVRVRGGSDTLRRTFYSSLYRSFLAPNIGSDADGRYTGWDHRIHRARGFTYYQNWSLWDTYRTQCQLLALLAPRESRDMAISVLKIDEDGGWLPKWGYGTVETNIMSGDPVTPFLTNAYQQGLLKGYEEQAYRALAKNADGLPPAAYPGVGRDGNREYIADGFVPYIKGGPHAKPGDSDYAHGASATMEYALSDAMLSRMARDLGHDADAERYTARSRNYRTLFDASTGFFRARDTSGAFAGPADPADSEGFHEGTAWQYQWLVPQDLPGLVDLIGGKQAANDRLDAFFAYEQLLQDPARTAREVWVDGPYEYYNSDKYNPQNEPDLIAPYTYLSTGQPWKTTDVVHAALTLFTDTPTGMTGNDDLGTMSAWHVLSSIGLFPVQPGYDTWGLSTPVFERVDLRLDRGYYPRGTLTVTAPGTSDRDRYIQSVRVDGASHDRTYLTTRVLRGLEALHFAVGARPSAWGTAPHAAPPALK
- protein production: failed

Sequence: MRYLADHDDLTGLHNRRALLQHLDQRLAPGQPGPVAALFLDLDRLKAINDYLGHAAGDQFIHVFAQRIGDALVGESLIARLGGDEFVLIPASPMSADAAQPLAERLRDQLKDHVAIGGEVLTRTVSIGVASGTPGQHTLEHHHHHH
- protein production: not failed

Sequence: MRYLLIILAFWLPLQSHAVEFDENTRFLPLGRAVQVFEDPTGTATIDSVSSPAGAQAFRPAPAGTFNAGYSRSAFWLKVELSYRPADADIHNDWLLELAYPPMDRVDFYAPDANGRPTLTWQTGDMLPFASRQFAQNNYLFQLELPPGQTRTLYVRISSEGSVQAPLNLWSTHAYLEAQPTKIYVFGLIYGVLLGMLVYNLFIYLSVREPDYLYYLLYVAAFGLYQMSINGVAIEYLWPDSPWWANASTPFLMALATLFACQFTRSFLGTVRLGRWLDRSLLTLIGAAVLVMCIALFLSYGPALRAATQLVMAGALTIYLAGIVAVVKGERVGRYFVLAWSVFMIGGLVFGLMLMGYMPNTFLTMYASHIGTLLEMAFLSMALADRINHARYQQEQTLLAYGKDLERLNQQLATSNRLKDEFLATLTHELRTPMNGVIGSLEVMQTLDMDDEVEMYQQTAASSARDMMSMINGILTLTELQAGVLYAECSAFAPVDLVDRLRERFSGAAQSKGLTLTLDLDDKLPPGIRGDAGKLYQCLECLVDNAIKFTRKGAVQVRFSGQPQDLERMYLRVEVMDSGIGFSHLDEALLYQHFLQVDGSMTREYGGLGIGLAICRKLVELQGGELSHRSEPGKGSCFTLSIPMLMAVPGAVRRAPEAKAQWGHVSRS
- protein production: failed

Sequence: MRYRNSRQVTGVVKNVTVSQSCGKWYISIQAESEVSTPVHPSASMVGLDAGVAKLASLSDGTVFEPVNSFQKNQKTLARLQRQLSRKVKFSNNWQKQKRKIQRLHSCIANIRRDYLHKVTTTVSKNHVMIVIEDLKVSNMSKSAAGTVSQPGRNVRAKSGLNRSILDQGWYEMRRQLEYKQLWRGGQVLAVPPAYTSQRCACCGHTAKENRLSQSKFRCQVCGYTANADVNGARNILAAGHAVLACGEMVQSGRSLKQEPTEMIQATALEHHHHHH
- protein production: failed

Sequence: MSAAQAVDDVPLEHAGNDVSDRMSLQRGVQLYMNYCVGCHSLKYLRYSRIAADLGLSEVQVMSTLNVTGAKFGDTIMTGMPVDTSEQWFGKIPPDLSLVARVRGSDWIYTYLRSFYVDSTRPLGWNNRLFVDVSMPNPLSHLQGVQRAEYGGASQAGADRLVTGLVLVQPGQQSPAEFDQTLRDIVNFLQYAAEP
- protein production: failed

Sequence: MSADHDEGLRRAQRLHLSGDADGAERAYRALLDDAALGAPAAHWLGFLLMQQGRLDEALAWLERVVAADDGHAEWHFNLGLVRARLGRSEEAVFALREAARRDPSRYFYWTNLGAQLMRGGQDAEAEQALRRAASLDPHCPDAFYLLTEMLLRQGRHAEARRCNAQGVLAEPPGKMAPIAVGQALCELGRSEEARSLAQSWLLAQPGHPVARHMLAAFGGGDAPADGDDEYVGCAFDAAAASFDQDLSRLRYQGPSWTAACLAGLSLAPKSLSALDLGCGTGLIGEVLQPWASRLDGVDLSAGMLARAGAKGIYDSLEQAELRAFLRQTDRTYQLIACMDTLPYLGELDALFMLLAERMAPGGLLLFCTESLEDGEAGDGRLHHSGRYRHHSRYLDRLLAVGWDVLERARMPVRDEAGCPVWGDFVCARKVFAA
- protein production: failed

Sequence: MSAEFIDSLAVMLLALGMTTAIGGMYFLFSALGNEKRIEGLLMPAVGVGLFDFMSGFVMSFTWPLPSSYNMLFGDPLLMAGLLLMISAIAYYKHYDISSVSILLFFLGIYVIIEAVGIVNYHLESGDNLLAAMGLYIVDGIAAILSPIMYIDQKKGKIAYMIEAAILIIGTLIALFIGYTAIYGHLLDFIKYFP
- protein production: failed

Sequence: MSAEVETSEGVDESEKKNSGALEKENQMRMADLSELLKEGTKEAHDRAENTQFVKDFLKGNIKKELFKLATTALYFTYSALEEEMERNKDHPAFAPLYFPMELHRKEALTKDMEYFFGENWEEQVQCPKAAQKYVERIHYIGQNEPELLVAHAYTRYMGDLSGGQVLKKVAQRALKLPSTGEGTQFYLFENVDNAQQFKQLYRARMNALDLNMKTKERIVEEANKAFEYNMQIFNELDQAGSTLARETLEDGFPVHDGKGDMRKCPFYAAEQDKGALEGSSCPFRTAM
- protein production: not failed

Sequence: MSAFDFNFQPSINQQDVLDFTDLRFIGKYENIVFLDSNVVSKNRISTYFIKCHHLKENLRKAKLENSLENRLKHYSKYKLLIIDEIGYLPIGSEAAKIFFQINRFKVLEHHHHHH
- protein production: not failed

Sequence: MSAHQGSETVTFGDSSAERPLGRSIMRGMANRCPACGSGRLFRAFLKPVDACAACGEEMHHHRSDDLPPYISIVIIGHIAVGGFMMTDMILNIPMWAHFAIWVPITILAALLTLQPIKGGVIGLQWALRMHGFDRKQPKVQIDGSSH
- protein production: failed

Sequence: MSAHRPAAATPAAAAPSKRERFLSLDVFRGLTIFLMILVNTAGPGAQAYAQLTHAAWFGFTLADLVFPSFLFAVGSAMSFALATNTPHLQFLGRVSRRAALILLCGVLMYWFPFFHLQPDGGWAFTTVDQLRLTCVLQRIGLCYLAAALLVRYLPPRGIAPVCLALLLGYWALLYAFGQPGAELSKTGNAGTRLDLWLYGRDHLYRKDGGFDPEGLLGTLSATVNVLAGYLCGRFLQRHGKTIASTRSLLLAGAGLVLLALLWAPAWPLSKKLWSGSFVACTVGLDLLALGALVYLLELRGWTGGSGFFTVLGRNPLAIYLFSELFVVVLRLIPAGSSGLDLYAWAGIGVFQTIAPGPLGSLLCALSYTLMCCAVGWWMDRRRWYLRL
- protein production: failed

Sequence: MSAISPNGAEEHPIGLTLNGQRLTLQVNPWTTLLDLLREQLDLVGTKKGCDHGQCGACTVLRDGKRVNACLTLAIMCDGAELVTIEGLASGDVLHPMQRAFITHDAFQCGYCTPGQICSAVGLAREGRAYTREAIREQMSGNLCRCGAYSNIVAAVEEALPLMTDLAPPQRGPNP
- protein production: failed
